Results: patent publication US8841274B2, “Protein arginine N-methyltransferase-5 method of cancer treatment” (priority 2009, dated 2014)

Legend:
[1] = target: T1, PRMT5 (Homo sapiens, UniProt O14744); experiment: In vitro methyltransferase assay of E2F-1 proteins; format: biochemical; set-up: made in house; host or cells: U2OS cells (transient transfection, anti-Flag immunoprecipitation, elution); details: about 1 μg protein, 3H labeled SAM; mutants compared with wild-type E2F-1
Protocol: To assess whether the RGRGR motif was a direct target for PRMT5 methylation, a series of mutant derivatives of E2F-1 were made in which each arginine (R) residue was substituted with a lysine residue (K; FIG. 1a), and the ability of the mutant derivative to be methylated in vitro then assessed. […] In FIG. 1b(i) each of the indicated proteins (about 1 μg) was used in the methylation reaction. In vitro methylated samples were analysed by SDS-PAGE as described below. E2F-1 is indicated. In FIG. 1b(ii) samples in FIG. 1b(i) were counted (3H cpm as indicated). Histones treated with PRMT5 served as the positive control. The data shown provide one example taken from two different experiments.
Flag-PRMT5 plasmid was transfected into U2OS cells for 48 h. Cells were lysed and Flag-PRMT5 was immunoprecipitated with agarose beads and then eluted. The elute was mixed with recombinant substrates (GST fusion proteins or histones) in methylation reaction buffer (50 mM Tris, 0.1 mM EDTA, 50 mM NaCl) with ^3H labeled SAM (as —CH3 group donor) to a volume of 40 μl and incubated at 30° C. for 90 min. Half of the reactions were then spotted onto p81 membrane circles (Whatman) and air dried. The membranes were then washed three times, 5 min each in 50 ml of wash buffer (46 mM NaHCO3, 4 mM Na2CO3, pH 9.2). After washing briefly with acetone, membranes were air dried, placed in scintillation vials, immersed in scintillation fluid (Beckman Coulter) and disintegrations per minute (DPM) measured in a scintillation counter. The other half of the reactions were run on SDS-PAGE gel and used to detect ^3H auto-radioisotope/methylation signal.
Target sequence in this assay (O14744 whole entry): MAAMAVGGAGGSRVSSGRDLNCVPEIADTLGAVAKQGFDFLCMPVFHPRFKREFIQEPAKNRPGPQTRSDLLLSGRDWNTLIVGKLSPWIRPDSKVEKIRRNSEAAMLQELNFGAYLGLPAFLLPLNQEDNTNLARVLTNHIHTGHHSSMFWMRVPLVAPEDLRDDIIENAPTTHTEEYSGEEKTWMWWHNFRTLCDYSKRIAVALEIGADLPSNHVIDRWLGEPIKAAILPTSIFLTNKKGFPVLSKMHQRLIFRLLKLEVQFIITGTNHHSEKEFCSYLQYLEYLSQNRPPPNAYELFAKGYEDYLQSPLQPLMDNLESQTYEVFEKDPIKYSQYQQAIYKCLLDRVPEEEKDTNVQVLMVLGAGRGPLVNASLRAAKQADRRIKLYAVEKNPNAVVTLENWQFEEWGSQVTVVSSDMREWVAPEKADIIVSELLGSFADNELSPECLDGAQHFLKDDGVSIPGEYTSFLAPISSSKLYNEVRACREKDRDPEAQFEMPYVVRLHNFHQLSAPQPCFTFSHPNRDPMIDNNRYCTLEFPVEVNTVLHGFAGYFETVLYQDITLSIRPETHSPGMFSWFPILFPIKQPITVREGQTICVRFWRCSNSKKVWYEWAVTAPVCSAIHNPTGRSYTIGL
Target sequence in this assay (Q9BQA1 whole entry partner): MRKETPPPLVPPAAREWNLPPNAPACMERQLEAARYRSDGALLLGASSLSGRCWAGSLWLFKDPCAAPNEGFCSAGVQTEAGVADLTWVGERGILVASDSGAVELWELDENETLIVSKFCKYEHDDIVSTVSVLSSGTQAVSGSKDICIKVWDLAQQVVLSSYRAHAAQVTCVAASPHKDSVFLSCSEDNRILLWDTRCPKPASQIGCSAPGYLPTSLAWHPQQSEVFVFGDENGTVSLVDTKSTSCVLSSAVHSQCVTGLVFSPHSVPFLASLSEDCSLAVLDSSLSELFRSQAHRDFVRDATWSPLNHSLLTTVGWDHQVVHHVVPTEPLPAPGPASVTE

[2] = target: T1, PRMT5; experiment: GST binding assay with U2OS cell lysate, PRMT5 immunoblot; set-up: The indicated GST proteins were incubated with U2OS cell lysate; endogenous in cells; host or cells: U2OS; details: GST-E2F-1 proteins incubated with U2OS cell lysate
Protocol: It was then assessed whether E2F-1 could interact with PRMT5 and thereafter the role of each R residue in mediating the interaction. […] The indicated GST proteins were incubated with U2OS cell lysate, and bound proteins immunoblotted using anti-GST (for input GST), DP-1 or PRMT5 antibodies. Binding to DP-1, the major heterodimeric partner for E2F-1 (Stevens and La Thangue 2003), served as a control since it bound equally to each of the E2F-1 proteins.
GST or GST tagged proteins (10 μg each) were incubated with agarose beads and damaged or undamaged U2OS cell lysates for 3 h. Beads were then washed with TNN buffer 3 times. SDS sample buffer was added to beads and samples were analysed by immunoblotting.
Target sequence in this assay (O14744 whole entry): as the sequence (O14744 whole entry) above

[3] = target: T2, DP-1 (Homo sapiens, UniProt Q14186); experiment: Co-immunoprecipitation of ectopic E2F-1 with DP-1 in U2OS cells; format: cell-based; details: expression vector transfected into U2OS cells, HA11 IP
T2 construct: endogenous in cells; host or cells: U2OS
T2 sequence (Q14186 1-410): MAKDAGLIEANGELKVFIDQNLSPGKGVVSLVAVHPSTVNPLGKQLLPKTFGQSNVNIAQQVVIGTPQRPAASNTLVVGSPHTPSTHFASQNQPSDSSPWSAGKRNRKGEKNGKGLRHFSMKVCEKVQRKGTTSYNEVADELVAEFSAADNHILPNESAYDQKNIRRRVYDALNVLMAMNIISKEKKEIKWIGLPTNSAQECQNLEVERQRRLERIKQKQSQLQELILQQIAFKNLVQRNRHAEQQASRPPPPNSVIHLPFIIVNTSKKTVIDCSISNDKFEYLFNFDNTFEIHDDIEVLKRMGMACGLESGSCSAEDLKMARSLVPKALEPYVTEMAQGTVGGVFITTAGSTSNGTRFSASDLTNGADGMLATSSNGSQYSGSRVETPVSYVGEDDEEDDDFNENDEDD
Description: (§1) To establish whether E2F-1 was able to bind to PRMT5 in cells, the interaction between ectopic wild-type E2F-1 or KKK with PRMT5 was studied. […] Either a wild-type E2F-1 expression vector or a KKK expression vector was transfected into U2OS cells, and HA11 antibody was used for immunoprecipitation (IP) followed by immunoblotting with HA11 (E2F-1), PRMT5 or DP-1 as indicated. The level of input (In) protein is indicated. […] In contrast, binding to DP-1 was equivalent for both wild-type E2F-1 and KKK. […] Further, the RGRGR motif is necessary for the interaction, which also encompasses the site of PRMT5 methylation.
(§2) Cells were either left untransfected or transfected with expression vectors as indicated. At 48 h post transfection, cells were harvested in TNN buffer (50 mM Tris-HC1 [pH 7.4], 150 mM NaCl, 5 mM EDTA, 0.5% Ipegal, 50 mM NaF, 0.2 mM sodium orthovanadate and protease inhibitor cocktail (1 mM PMSF, leupeptin [1 μg/ml], aprotinin [1 μg/m1], and pepstatin A [1 μg/ml])) and rotated at 4° C. for 30 min to 1 h. The cell lysate was then homogenised, centrifuged at 11000 rpm for 10 min to remove cell debris and the supernatant collected. All lysates were normalized for protein concentration and, where appropriate, for transfection by β-galactosidase activity. […] Enhanced chemi-luminescence (Pierce Biotechnology, Rockford, Ill.) was used to visualize antibody binding.

[4] = target: T1, PRMT5; experiment: Co-immunoprecipitation of ectopic E2F-1 with PRMT5 in U2OS cells; format: cell-based; set-up: The indicated GST proteins were incubated with U2OS cell lysate; endogenous in cells; host or cells: U2OS; details: expression vector transfected into U2OS cells, HA11 IP
Description: as §1, §2
Target sequence in this assay (O14744 whole entry): as the sequence (O14744 whole entry) above

[5] = system: p73-luciferase or cyclinE-luciferase; experiment: Reporter assay with E2F-responsive promoters; format: cell-based; details: U2OS cells, 48 h, equivalent protein level; compared to wild-type E2F-1; n=3
Protocol: To further explore the role of arginine methylation in the transcription properties of E2F-1, wild-type E2F-1 was compared with the KK and KKK mutants in a reporter-based transfection assay, using E2F-responsive promoters derived from E2F target genes. The assay was performed under conditions in which each mutant protein was expressed at an equivalent level to wild-type E2F-1 (FIG. 4aii and bii), thus ruling out any difference in activity that could be attributed to protein levels. […] FIGS. 4a and b show the transcription properties of wild-type E2F-1, KK and KKK mutants. U2OS cells were transfected with expression vectors encoding WT or mutant E2F-1 protein, together with p73-luciferase (A) or cyclinE-luciferase (B) for 48 h as indicated, and pCMV-βgal to monitor transfection efficiency. Relative luciferase activity (luciferase/βgal) is shown together with expression level of ectopic proteins; n=3. […] PRMT5 (P) or control (C) non-targeting siRNA was transfected into U2OS cells together with p73-luciferase (i) or cyclinE-luciferase (ii) for 48 h, together with pCMV-βgal to monitor transfection efficiency. Relative luciferase activity is shown together with expression level of the ectopic proteins.
Cells were transfected with expression vectors (1 μg) encoding WT or the mutant E2F-1 proteins as indicated with E2F responsive luciferase reporters, namely p73-luciferase or cyclinE-luciferase, together with pCMV-βgal to monitor transfection efficiency. Cells were harvested, lysed 48 h post-transfection and luciferase activity measured as previously described (Janson et al 2008).

[6] = system: U2OS cells; experiment: Apoptosis (sub-G1) by FACS in U2OS cells; format: cell-based; details: U2OS cells, expression vectors 48 h; relative to wild-type E2F-1; n=2
Protocol: Whether arginine methylation influences E2F-1-dependent apoptosis was investigated by comparing the ability of wild-type E2F-1 to the KK and KKK mutants to induce cells with a sub-G1 DNA content (Stevens et al 2003). […] U2OS cells were transfected with expression vectors encoding wild-type E2F-1, KK and KKK as indicated for 48 h and analysed by FACS as described. The graph represents the relative change in sub-G1 populations compared to the empty vector control treatment; n=2.
The graph (i) represents the relative number of sub-G I cells (compared to the control treatment) in the indicated conditions; and (ii) the level of PRMT5 and E2F-1; n=3.
PRMT5 (P) or control (C) non-targeting siRNA (25 nM) was transfected into HCT116 p53+/+ (i), HCT116 p53−/− (ii) or U2OS (iii) cells and the cells were harvested 72 h post-transfection and analysed by FACS. The graph represents the actual number of sub-G1 cells in the indicated conditions, and the immunoblot the level of PRMT5 and actin control; n=3.
PRMT5 (P), E2F-1 (E) or control (C) non-targeting siRNA was transfected into U2OS cells and harvested 72 h post-transfection and analysed by FACS as described.
Cells were transfected with the indicated expression vectors together with pBB14-GFP (for 48 h) to monitor transfection efficiency or siRNA (for 48 h or 72 h) with or without treatment of the DNA damage agent for the last 16 h. Then, cells were fixed and stained with propidium iodide and analyzed by Flow Cytometry.

| Substance | in vitro methylation by PRMT5 [1] | binding to PRMT5 [2] | binding to DP-1 in cells [3] | co-immunoprecipitation with PRMT5 [4] | transcriptional activity (relative luciferase activity) [5] | apoptosis (sub-G1 population) [6] |
| --- | --- | --- | --- | --- | --- | --- |
| R113K: mutant E2F-1 with arginine 113 substituted with lysine | greater level of reduction | compromised PRMT5 binding |  |  |  |  |
| R111K: mutant E2F-1 with arginine 111 substituted with lysine | greater level of reduction | compromised PRMT5 binding |  |  |  |  |
| wild-type E2F-1: E2F-1 protein, SEQ ID NO:3, used as GST fusion or HA-tagged expression vector | could be methylated in vitro | bound to PRMT5 | equivalent | co-immunoprecipitated with PRMT5 |  |  |
| R109K: mutant E2F-1 with arginine 109 substituted with lysine | reduced methylation | significant PRMT5 binding activity |  |  |  |  |
| KK: methylation-defective E2F-1 protein containing the mutations R111K and R113K | could not be methylated by PRMT5 | completely devoid of PRMT5 binding |  |  | increased transcriptional activity | increased levels of apoptosis |
